The values below come from publication PMC5656003.

The subject of the data set is O=[N+]([O-])c1ccc(O[C@@H]2O[C@H](CO)[C@@H](O)[C@H](O)[C@H]2O)cc1. Put plainly: pNP release, initial-rate kinetics. The format is biochemical, Bacteroides ovatus.

As to BACOVA_02738 (GH3) (Bacteroides ovatus), the Km (as a rule, the concentration of substrate that gives half-maximal velocity) was found to be 2530 ± 130 µM; the kcat (commonly the number of substrate molecules converted per active site and unit of time at saturation) turned out to be 0.212 ± 0.004 s⁻¹; the kcat/Km (usually the second-order rate constant that governs catalysis at low substrate concentration) is 83.8 M⁻¹ s⁻¹.
The like results for BoGH3MLG (Bacteroides ovatus) were, in that order, 2950 ± 140 µM, 59.5 ± 1.46 s⁻¹ and 20200 M⁻¹ s⁻¹.
